Experimental findings from patent publication US8491890 are described below.

The experiment addresses Fas (CD95, APO-1) on mouse microglia (mouse) (UniProt P25446). Description: cell-based or functional assay.
UniProt P25446, sequence (P25446 22-327): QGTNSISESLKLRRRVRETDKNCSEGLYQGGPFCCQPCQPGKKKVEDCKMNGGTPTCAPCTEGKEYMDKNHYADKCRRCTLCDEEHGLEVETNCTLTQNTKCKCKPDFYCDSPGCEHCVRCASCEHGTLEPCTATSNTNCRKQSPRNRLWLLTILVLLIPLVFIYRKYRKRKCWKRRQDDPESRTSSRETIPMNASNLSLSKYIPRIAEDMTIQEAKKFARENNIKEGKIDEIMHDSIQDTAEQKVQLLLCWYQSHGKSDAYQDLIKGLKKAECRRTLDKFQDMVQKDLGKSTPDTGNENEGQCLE

“Fas ligand (FasL) on mouse Treg and Teff (from UniProt P41047 1-279)” yielded a decrease of CB expression in Teff-treated cultures on blocking of FasL interactions (flow cytometry) of 4.8% and a decrease of CB protein expression in Treg-treated microglia on neutralization of FasL (flow cytometry) of 40.2%.
